Series [1] concerns the target T1, Sox2-HMG long (109 aa) (mouse, UniProt P48432 41-149). The series can be described thus: NMR; 1:1.2 Sox2:DC5; EMSA: 10 mM Tris-HCl pH 8.0, 0.1 mg/ml BSA, 50 uM ZnCl2, 100 mM KCl, 10% glycerol, 0.1% IGEPAL CA-630, 2 mM 2-mercaptoethanol, 1-2 h, gel at 4 C, 100-300 nM DNA; NMR: 50 mM K phosphate, 100 mM NaCl, pH 7.0, 298 K. The note with it: protein: recombinant; blunt. In general terms: In EMSA bound probe runs differently from free probe, usually more slowly.

The target in series [2] is T1, Sox2-HMG long (109 aa). Kind of series: EMSA; binary Sox2-DNA complex prominent; EMSA: 10 mM Tris-HCl pH 8.0, 0.1 mg/ml BSA, 50 uM ZnCl2, 100 mM KCl, 10% glycerol, 0.1% IGEPAL CA-630, 2 mM 2-mercaptoethanol, 1-2 h, gel at 4 C, 100-300 nM DNA; NMR: 50 mM K phosphate, 100 mM NaCl, pH 7.0, 298 K. The note with it: protein: recombinant; label: 5'-FAM or 5'-Cy5; blunt.
Series [3] concerns the target Sox2-HMG long (109 aa);Pax3-PRD (mouse;mouse?, UniProt P48432;P24610 41-149;34-161, |). The series can be described thus: EMSA; cooperative; EMSA: 10 mM Tris-HCl pH 8.0, 0.1 mg/ml BSA, 50 uM ZnCl2, 100 mM KCl, 10% glycerol, 0.1% IGEPAL CA-630, 2 mM 2-mercaptoethanol, 1-2 h, gel at 4 C, 100-300 nM DNA; NMR: 50 mM K phosphate, 100 mM NaCl, pH 7.0, 298 K. Particulars: protein: recombinant;recombinant; tags: ;; copies: 1;1; label: 5'-FAM or 5'-Cy5; blunt.

Series [4] has as its target Sox2-HMG long (109 aa);Pax8-PRD (mouse;mouse?, UniProt P48432;Q00288 41-149;9-135, |). The description is as above. The note with it: protein: recombinant;recombinant; tags: ;; copies: 1;1; label: 5'-FAM or 5'-Cy5; blunt.
In series [5] the target is Sox2-HMG long (109 aa);Pax2-PRD (mouse;mouse?, UniProt P48432;P32114 41-149;15-141, |). Described as above. The note with it: protein: recombinant;recombinant; tags: ;; copies: 1;1; label: 5'-FAM or 5'-Cy5; blunt.
Sequence of Sox2-HMG long (109 aa);Pax2-PRD (P48432 41-149, chain 1 of 2): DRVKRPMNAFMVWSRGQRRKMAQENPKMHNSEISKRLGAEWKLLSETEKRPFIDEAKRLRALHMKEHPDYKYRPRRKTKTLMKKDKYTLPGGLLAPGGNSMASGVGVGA
Sequence of Sox2-HMG long (109 aa);Pax2-PRD (P32114 15-141, chain 2 of 2): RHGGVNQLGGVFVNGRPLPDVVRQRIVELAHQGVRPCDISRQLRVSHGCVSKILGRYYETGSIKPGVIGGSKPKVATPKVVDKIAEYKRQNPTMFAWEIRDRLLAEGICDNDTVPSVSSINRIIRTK
Series [6] deals with Sox2-HMG long (109 aa);Pax9-PRD (mouse;mouse?, UniProt P48432;P47242 41-149;4-130, |). The description is as above. Particulars: protein: recombinant;recombinant; tags: ;; copies: 1;1; label: 5'-FAM or 5'-Cy5; blunt.
Sequence of Sox2-HMG long (109 aa);Pax9-PRD (P48432 41-149, chain 1 of 2): as the sequence (P48432 41-149, chain 1 of 2) above
Sequence of Sox2-HMG long (109 aa);Pax9-PRD (P47242 4-130, chain 2 of 2): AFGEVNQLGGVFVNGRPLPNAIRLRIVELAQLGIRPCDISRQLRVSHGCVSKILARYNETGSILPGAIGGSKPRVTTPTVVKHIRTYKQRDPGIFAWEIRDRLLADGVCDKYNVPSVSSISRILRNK
Series [7] concerns the target Sox2-HMG long (109 aa);Pax6-PRD R44Q (mouse;mouse?, UniProt P48432;P63015 41-149;4-130, |R44Q). Kind of series: EMSA; cooperativity not affected by R44Q; EMSA: 10 mM Tris-HCl pH 8.0, 0.1 mg/ml BSA, 50 uM ZnCl2, 100 mM KCl, 10% glycerol, 0.1% IGEPAL CA-630, 2 mM 2-mercaptoethanol, 1-2 h, gel at 4 C, 100-300 nM DNA; NMR: 50 mM K phosphate, 100 mM NaCl, pH 7.0, 298 K. Particulars: protein: recombinant;recombinant; tags: ;; copies: 1;1; label: 5'-FAM or 5'-Cy5; blunt.

The text below walks through data of publication PMC4330359, “DNA-mediated cooperativity facilitates the co-selection of cryptic enhancer sequences by SOX2 and PAX6 transcription factors”.

T1 sequence (P48432 41-149): as the sequence (P48432 41-149, chain 1 of 2) above
Sequence of Sox2-HMG long (109 aa);Pax3-PRD (P48432 41-149, chain 1 of 2): as above
Sequence of Sox2-HMG long (109 aa);Pax3-PRD (P24610 34-161, chain 2 of 2): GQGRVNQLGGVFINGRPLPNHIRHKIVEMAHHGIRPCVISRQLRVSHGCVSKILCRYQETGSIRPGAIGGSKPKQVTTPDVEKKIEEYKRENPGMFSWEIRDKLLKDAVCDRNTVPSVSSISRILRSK
Sequence of Sox2-HMG long (109 aa);Pax6-PRD R44Q (P48432 41-149, chain 1 of 2): as the sequence (P48432 41-149, chain 1 of 2) above
Sequence of Sox2-HMG long (109 aa);Pax6-PRD R44Q (P63015 4-130 R44Q, chain 2 of 2): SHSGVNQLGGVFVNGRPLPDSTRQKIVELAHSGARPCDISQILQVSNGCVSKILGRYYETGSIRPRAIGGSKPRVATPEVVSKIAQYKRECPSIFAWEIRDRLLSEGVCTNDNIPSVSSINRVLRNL
Sequence of Sox2-HMG long (109 aa);Pax8-PRD (P48432 41-149, chain 1 of 2): as the sequence (P48432 41-149, chain 1 of 2) above
Sequence of Sox2-HMG long (109 aa);Pax8-PRD (Q00288 9-135, chain 2 of 2): as the sequence (P32114 15-141, chain 2 of 2) above, with R1G, V5L, V11A, D20E, E28D, K64R, D82E, A85G, E86D, I108V counted along it

B1: DC5 31-mer (NMR) (dsDNA)
DNA 1: TTCATTGTTGTTGCTCACCTACCATGGATCC
DNA 2: GGATCCATGGTAGGTGAGCAACAACAATGAA
In the case of B1, in the series with Sox2-HMG long (109 aa) [1], the binding result is “binds”.

B2: DC5con (dsDNA)
DNA 1: AAATATTCATTGTTGATGTTCACGCATCATGGATCC
DNA 2: GGATCCATGATGCGTGAACATCAACAATGAATATTT
Regarding B2, in the series with Sox2-HMG long (109 aa) [2], the binding result is recorded as “binds”.

B3: DC5 (dsDNA)
DNA 1: AAATATTCATTGTTGTTGCTCACCTACCATGGATCC
DNA 2: GGATCCATGGTAGGTGAGCAACAACAATGAATATTT
On to B3, for which the binding result in series [3], in series [4], in series [5], in series [6] and in series [7] was “binds” each time.
